Measurements reported in the supplement of paper PMC9112550, “Optimization of the antimicrobial peptide Bac7 by deep mutational scanning” (BMC Biology, 2022).

Test system: Escherichia coli TOP10
Assay: shrunken log2 fold change of peptide-encoding DNA abundance (4.5 h post-induction vs induction); higher = less antimicrobial activity (less host growth inhibition)
Conditions: time post-induction: 4.5 h; library: site-saturation at positions 5, 18, 19, 20
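Also: peptides expressed intracellularly from a pBAD plasmid library in pooled LB shake-flask culture, induced with 0.3% L-arabinose, DNA abundance read by NGS, three biological replicates, DESeq2 with apeglm shrinkage.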

Sequence	shrunken log2 fold change
RRIRCRPPRLPRPRPRPVYSPRP	-0.156
RRIRNRPPRLPRPRPRPGQLPRP	-0.126
RRIRHRPPRLPRPRPRPNRYPRP	-0.398
RRIRGRPPRLPRPRPRPSTVPRP	0.164
RRIRMRPPRLPRPRPRPIIEPRP	-0.0631
RRIRRRPPRLPRPRPRPMVQPRP	-0.00615
RRIRERPPRLPRPRPRPARWPRP	0.592
RRIRRRPPRLPRPRPRPAKTPRP	0.408
RRIRVRPPRLPRPRPRPAGQPRP	0.375
RRIRIRPPRLPRPRPRPRKFPRP	-0.000367
RRIRGRPPRLPRPRPRPLNTPRP	0.0396
RRIRVRPPRLPRPRPRPIHHPRP	-0.723
RRIRERPPRLPRPRPRPLRSPRP	0.474
RRIRVRPPRLPRPRPRPNLNPRP	-0.342
RRIRRRPPRLPRPRPRPMHHPRP	0.0725
RRIRKRPPRLPRPRPRPDQWPRP	0.376
RRIRARPPRLPRPRPRPGKSPRP	0.294
RRIRIRPPRLPRPRPRPRHWPRP	-0.12
RRIRLRPPRLPRPRPRPVHFPRP	-0.272
RRIRARPPRLPRPRPRPPWTPRP	0.385
RRIRSRPPRLPRPRPRPSMSPRP	0.0307
RRIRMRPPRLPRPRPRPADTPRP	0.367
RRIRWRPPRLPRPRPRPQEPPRP	0.316

Sequence	shrunken log2 fold change
RRIRCRPPRLPRPRPRPSERPRP	-0.0162
RRIRHRPPRLPRPRPRPHCGPRP	-0.0402
RRIRNRPPRLPRPRPRPHLFPRP	-0.0208
RRIRTRPPRLPRPRPRPEEFPRP	-0.0783
RRIRVRPPRLPRPRPRPYPEPRP	1.13
RRIRLRPPRLPRPRPRPALCPRP	0.00966
RRIRFRPPRLPRPRPRPSLNPRP	-0.642
RRIRVRPPRLPRPRPRPGQHPRP	0.0795
RRIRKRPPRLPRPRPRPNSPPRP	-0.027
RRIRGRPPRLPRPRPRPMWWPRP	0.184
RRIRYRPPRLPRPRPRPQLLPRP	-0.42
RRIRCRPPRLPRPRPRPGDRPRP	0.0429
RRIRFRPPRLPRPRPRPDVTPRP	-0.302
RRIRVRPPRLPRPRPRPVFTPRP	-0.14
RRIRKRPPRLPRPRPRPCQWPRP	-0.0983
RRIRLRPPRLPRPRPRPFNYPRP	-0.817
RRIRCRPPRLPRPRPRPPGIPRP	3.39
RRIRERPPRLPRPRPRPCAGPRP	-0.0261
RRIRCRPPRLPRPRPRPNFCPRP	-0.157
RRIRCRPPRLPRPRPRPCEYPRP	-0.163
RRIRHRPPRLPRPRPRPNKDPRP	-0.507
RRIRKRPPRLPRPRPRPMYQPRP	0.056
RRIRSRPPRLPRPRPRPFCMPRP	-0.324

Sequence	shrunken log2 fold change
RRIRCRPPRLPRPRPRPIIHPRP	-0.799
RRIRRRPPRLPRPRPRPGQPPRP	0.262
RRIRSRPPRLPRPRPRPQNQPRP	-0.455
RRIRNRPPRLPRPRPRPIANPRP	0.000407
RRIRIRPPRLPRPRPRPIAWPRP	0.0253
RRIRDRPPRLPRPRPRPAEMPRP	0.515
RRIRQRPPRLPRPRPRPWPKPRP	0.097
RRIRIRPPRLPRPRPRPMGNPRP	0.0077
RRIRDRPPRLPRPRPRPNGLPRP	-0.0178
RRIRDRPPRLPRPRPRPGCHPRP	0.15
RRIRPRPPRLPRPRPRPRRPPRP	0.489
RRIRIRPPRLPRPRPRPAYQPRP	-0.76
RRIRTRPPRLPRPRPRPHQDPRP	-0.245
RRIRLRPPRLPRPRPRPRDTPRP	-0.0364
RRIRNRPPRLPRPRPRPNRVPRP	-0.0281
RRIRGRPPRLPRPRPRPLCGPRP	0.78
RRIRSRPPRLPRPRPRPGANPRP	0.0967
RRIRWRPPRLPRPRPRPIMIPRP	-0.28
RRIRARPPRLPRPRPRPQNAPRP	0.243
RRIRIRPPRLPRPRPRPGEWPRP	-0.01
RRIRTRPPRLPRPRPRPRCRPRP	0.158
RRIRIRPPRLPRPRPRPYRCPRP	-0.0728
RRIRCRPPRLPRPRPRPCDVPRP	-0.0285

Sequence	shrunken log2 fold change
RRIRRRPPRLPRPRPRPYLTPRP	0.0355
RRIRQRPPRLPRPRPRPREFPRP	0.0416
RRIRERPPRLPRPRPRPFFAPRP	0.848
RRIRYRPPRLPRPRPRPWMDPRP	-0.159
RRIRNRPPRLPRPRPRPSLGPRP	0.0885
RRIRRRPPRLPRPRPRPIYYPRP	-0.192
RRIRWRPPRLPRPRPRPARHPRP	0.31
RRIRHRPPRLPRPRPRPELLPRP	0.06
RRIRTRPPRLPRPRPRPRGCPRP	0.261
RRIRKRPPRLPRPRPRPAGVPRP	0.685
RRIRLRPPRLPRPRPRPEWWPRP	0.124
RRIRTRPPRLPRPRPRPFTLPRP	-0.312
RRIRSRPPRLPRPRPRPQRRPRP	0.21
RRIRNRPPRLPRPRPRPVQNPRP	-0.0269
RRIRIRPPRLPRPRPRPCYNPRP	-0.329
RRIRYRPPRLPRPRPRPPEGPRP	-0.455
RRIRFRPPRLPRPRPRPSSSPRP	-0.625
RRIRVRPPRLPRPRPRPDKRPRP	0.0226
RRIRLRPPRLPRPRPRPMPKPRP	-0.105
RRIRGRPPRLPRPRPRPDWLPRP	0.963
RRIRCRPPRLPRPRPRPTKCPRP	-0.0551
RRIRNRPPRLPRPRPRPDSVPRP	0.119
